Source: paper PMC4694752 (Molecular Biology of the Cell, 2016)

T1: His6-Sec31 (aa 1–500) (yeast, UniProt P38968 1-500)
T1 sequence (looked up): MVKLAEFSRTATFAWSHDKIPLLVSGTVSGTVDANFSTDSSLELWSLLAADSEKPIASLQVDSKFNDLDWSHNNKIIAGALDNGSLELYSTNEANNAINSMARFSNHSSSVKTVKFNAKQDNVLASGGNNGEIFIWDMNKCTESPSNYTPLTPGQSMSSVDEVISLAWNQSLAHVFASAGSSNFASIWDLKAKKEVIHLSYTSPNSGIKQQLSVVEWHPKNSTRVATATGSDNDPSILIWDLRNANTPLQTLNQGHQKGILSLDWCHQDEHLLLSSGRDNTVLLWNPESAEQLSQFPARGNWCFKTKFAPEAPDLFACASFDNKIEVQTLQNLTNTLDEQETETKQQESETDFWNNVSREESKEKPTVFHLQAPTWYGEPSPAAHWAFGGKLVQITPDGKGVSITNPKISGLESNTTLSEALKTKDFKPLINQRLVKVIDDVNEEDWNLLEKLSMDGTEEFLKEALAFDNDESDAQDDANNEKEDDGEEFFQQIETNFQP

T2: GST-Sec24 (yeast, UniProt P40482 1-926)
T2 sequence (looked up): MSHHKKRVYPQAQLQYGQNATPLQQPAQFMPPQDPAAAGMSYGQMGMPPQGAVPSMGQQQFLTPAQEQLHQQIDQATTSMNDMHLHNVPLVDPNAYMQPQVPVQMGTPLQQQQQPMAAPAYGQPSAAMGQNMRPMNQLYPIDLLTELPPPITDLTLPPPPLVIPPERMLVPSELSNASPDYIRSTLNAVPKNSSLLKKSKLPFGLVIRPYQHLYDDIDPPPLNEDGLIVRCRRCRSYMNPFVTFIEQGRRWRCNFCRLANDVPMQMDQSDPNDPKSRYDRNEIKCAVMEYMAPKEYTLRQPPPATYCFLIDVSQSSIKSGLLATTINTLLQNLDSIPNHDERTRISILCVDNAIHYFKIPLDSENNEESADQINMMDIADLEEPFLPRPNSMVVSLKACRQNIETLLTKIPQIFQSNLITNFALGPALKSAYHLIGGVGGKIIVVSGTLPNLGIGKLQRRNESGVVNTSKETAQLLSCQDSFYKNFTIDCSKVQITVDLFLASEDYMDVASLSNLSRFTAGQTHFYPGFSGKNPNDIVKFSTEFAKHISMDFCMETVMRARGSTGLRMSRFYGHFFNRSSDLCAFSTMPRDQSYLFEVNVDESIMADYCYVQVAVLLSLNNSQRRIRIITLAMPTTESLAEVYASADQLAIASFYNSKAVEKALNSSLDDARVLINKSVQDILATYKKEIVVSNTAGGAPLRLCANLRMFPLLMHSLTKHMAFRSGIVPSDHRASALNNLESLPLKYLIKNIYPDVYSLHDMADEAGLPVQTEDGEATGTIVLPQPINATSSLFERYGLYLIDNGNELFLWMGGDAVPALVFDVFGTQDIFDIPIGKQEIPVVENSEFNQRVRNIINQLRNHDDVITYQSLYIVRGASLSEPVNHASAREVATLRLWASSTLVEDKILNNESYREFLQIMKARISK

T3: GST-Sec23 (yeast, UniProt P15303 1-768)
T3 sequence (looked up): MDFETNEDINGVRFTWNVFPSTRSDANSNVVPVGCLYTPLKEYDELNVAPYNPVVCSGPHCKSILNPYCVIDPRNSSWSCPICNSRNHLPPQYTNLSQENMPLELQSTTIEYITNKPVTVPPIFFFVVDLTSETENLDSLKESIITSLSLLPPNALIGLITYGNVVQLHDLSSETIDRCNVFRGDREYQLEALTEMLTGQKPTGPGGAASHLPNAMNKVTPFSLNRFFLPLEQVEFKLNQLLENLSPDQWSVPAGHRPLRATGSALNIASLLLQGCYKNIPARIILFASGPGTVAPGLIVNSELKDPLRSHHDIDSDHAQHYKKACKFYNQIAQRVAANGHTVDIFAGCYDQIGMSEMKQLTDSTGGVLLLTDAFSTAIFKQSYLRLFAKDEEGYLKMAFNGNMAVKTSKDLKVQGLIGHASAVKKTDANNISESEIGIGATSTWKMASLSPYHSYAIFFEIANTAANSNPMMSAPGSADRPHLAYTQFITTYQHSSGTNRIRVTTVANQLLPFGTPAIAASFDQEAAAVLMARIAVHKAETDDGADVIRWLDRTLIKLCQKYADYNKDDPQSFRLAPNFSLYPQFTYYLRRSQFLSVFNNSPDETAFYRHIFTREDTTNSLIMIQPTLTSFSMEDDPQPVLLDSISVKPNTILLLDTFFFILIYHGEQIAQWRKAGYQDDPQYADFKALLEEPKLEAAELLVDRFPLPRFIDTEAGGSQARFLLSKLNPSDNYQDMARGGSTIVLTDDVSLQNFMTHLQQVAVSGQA

B1: GST-auxilin-TPR domain (aa 363–561) (domain or fragment, yeast, UniProt Q06677 363-561, looked up)
chain: TIPISDIELSGYNEFKAKGTSLFKNGDYINSLQEYEKSLNTLPLNHPLRIIALSNIIASQLKIGEYSKSIENSSMALELFPSSKAKWKNKISNSDPERSFNDIWPKIMIRRAESFEHLESFKKALETYQELIKKNFFDDKIMQGKRRCQDFINPPPVKKSMPVKKKTTTTSPATKKQNLTASSSNSPISVDSTSEIKKR
B2: His6-auxilin (natural protein, yeast, UniProt Q06677 1-668, looked up)
chain: MSDPFAHLLTSLKNKDSASASKETTPQSSNSPSITGSAVADVARTDKSPNDSLHSISAPPLIPSPKVDFSAPPLVPTNSTTKSNTANNTPPSALANTDDDFNQLFGMGTVTTTDTIQKPDEDYYGSKEDHLYNGDDALVDEVKDMEIARLMSLGLSIEEATEFYENDVTYERYLEILKSKQKERNDLAIRKKESGIKMEKSGLSNIVGTDSNNLFSMATDFFNKGKKLVDQWTSFPPEANDRLNNYSKTHDKVEDYDLPQVNDSPNRILFEDNEVVENLPPADNPDQDLLTDFETKIDITKRTAPDVSHSSSPTSGILIEENSRRNEPLIEDSLLDFSEGNLTNSKSNEDSTLFNENSNTDSTIPISDIELSGYNEFKAKGTSLFKNGDYINSLQEYEKSLNTLPLNHPLRIIALSNIIASQLKIGEYSKSIENSSMALELFPSSKAKWKNKISNSDPERSFNDIWPKIMIRRAESFEHLESFKKALETYQELIKKNFFDDKIMQGKRRCQDFINPPPVKKSMPVKKKTTTTSPATKKQNLTASSSNSPISVDSTSEIKKRELENAKLALYDKVFEKISSWKDGKDDDIRHLLANLSSLLTWCNWKDVSMQDLVMPKRVKITYMKAVAKTHPDKIPESLSLENKMIAENIFSTLSIAWDKFKLQNDIN

Assays:
Test in all cases: pull-down
His6-Sec31 (aa 1–500) = target: T1, His6-Sec31 (aa 1–500)
GST-Sec24 = target: T2, GST-Sec24
GST-Sec23 = target: T3, GST-Sec23

| Binder | binding result (His6-Sec31 (aa 1–500)) | binding result (GST-Sec24) | binding result (GST-Sec23) |
| --- | --- | --- | --- |
| B1 | binds |  |  |
| B2 |  | binds | binds |
